PMC2605612 (Experimental cell research, 2008)
Positions count from the first letter of the chain named. Names and notes keep the numbering of the source. Read-outs that look alike come from different tables or passages of the source.

B1: Myc-hFis1[32-152]GGIDGG (domain or fragment, human, UniProt Q9Y3D6 32-152, looked up)
chain: KSTQFEYAWCLVRSKYNDDIRKGIVLLEELLPGGIDGGRDYVFYLAVGNYRLKEYEKALKYVRGLLQTEPQNNQAKELERLIDKAMKKDGLVGMAIVGGMALGVAGLAGLIGLAVSKSKS
B2: Myc-hFis1[92-152] (domain or fragment, human, UniProt Q9Y3D6 92-152, looked up)
chain: KYVRGLLQTEPQNNQAKELERLIDKAMKKDGLVGMAIVGGMALGVAGLAGLIGLAVSKSKS
B3: Myc-hFis1[32-152] (domain or fragment, human, UniProt Q9Y3D6 32-152, looked up)
chain: KSTQFEYAWCLVRSKYNDDIRKGIVLLEELLPKGSKEEQRDYVFYLAVGNYRLKEYEKALKYVRGLLQTEPQNNQAKELERLIDKAMKKDGLVGMAIVGGMALGVAGLAGLIGLAVSKSKS
B4: Myc-hFis1[32-152]-Y87A (domain or fragment, human, UniProt Q9Y3D6 32-152, looked up)
chain: B3 chain with Y56A
B5: Myc-hFis1[32-152]Δα5 (domain or fragment, human, UniProt Q9Y3D6 32-152, looked up)
chain: KSTQFEYAWCLVRSKYNDDIRKGIVLLEELLPKGSKEEQRDYVFYLAVGNYRLKENQAKELERLIDKAMKKDGLVGMAIVGGMALGVAGLAGLIGLAVSKSKS
B6: Fis/OMP (other, UniProt Q9Y3D6 1-120, looked up)
chain: MEAVLNELVSVEDLLKFEKKFQSEKAAGSVSKSTQFEYAWCLVRSKYNDDIRKGIVLLEELLPKGSKEEQRDYVFYLAVGNYRLKEYEKALKYVRGLLQTEPQNNQAKELERLIDKAMKKPIFMVLVPVFALTMVAAWAFMRYRQQL

Columns and labels:
[1] = target: the molecule itself; assay: cross-linking
[2] = target: the molecule itself; assay: cross-linking; remark: listed apart in the source

| Protein | fold decrease in dimer formation against Myc-hFis1[32-152] [1] [fold] | stoichiometry N [1] | stoichiometry N [2] |
| --- | --- | --- | --- |
| B1 | ~3 | – | – |
| B2 | – | 2 | – |
| B3 | – | 5 | 4 |
| B4 | – | 2 | – |
| B5 | ~8 | – | – |
| B6 | – | 2 | – |
